Test results: FireProtDB (doi:10.1110/ps.062645007)
Where “and” joins values, the source holds several entries; their conditions need not be identical. Identical values can stand only once.

Conditions: Salmonella typhimurium (strain LT2 / SGSC1412 / ATCC 700720); pH 7.4; Thermal; CD; Phosphate 10 mM; transition: 3; whole UniProt chain shown

B1: Cell invasion protein SipD wild type, Q56026 (protein)
chain: MLNIQNYSASPHPGIVAERPQTPSASEHVETAVVPSTTEHRGTDIISLSQAATKIHQAQQTLQSTPPISEENNDERTLARQQLTSSLNALAKSGVSLSAEQNENLRSAFSAPTSALFSASPMAQPRTTISDAEIWDMVSQNISAIGDSYLGVYENVVAVYTDFYQAFSDILSKMGGWLLPGKDGNTVKLDVTSLKNDLNSLVNKYNQINSNTVLFPAQSGSGVKVATEAEARQWLSELNLPNSCLKSYGSGYVVTVDLTPLQKMVQDIDGLGAPGKDSKLEMDNAKYQAWQSGFKAQEENMKTTLQTLTQKYSNANSLYDNLVKVLSSTISSSLETAKSFLQG
- Tm: 75.7 °C and 76.6 °C
